T1: monkey (Rhesus macaque) 4-1BB (r4-1BB) on transfected CHO cells (monkey (Rhesus macaque), UniProt Q07011 24-255 (human entry))
T1 construct: also called rm4-1BB; CHO-r4-1BB
T1 chain: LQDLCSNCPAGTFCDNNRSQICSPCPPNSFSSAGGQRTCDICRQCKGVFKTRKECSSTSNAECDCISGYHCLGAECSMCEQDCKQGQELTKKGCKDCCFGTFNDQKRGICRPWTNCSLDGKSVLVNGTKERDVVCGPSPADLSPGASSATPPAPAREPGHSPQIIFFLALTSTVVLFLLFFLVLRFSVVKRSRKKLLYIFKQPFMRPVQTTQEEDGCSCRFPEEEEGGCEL

B1: 45-8F1 (antibody, V domains shown)
VH: EVQLQQSGTVLARPGASVKMSCKASGYSFTSYWMHWVKQRPGQGLEWIGVIYPGNSDTSYNQKFKGKAKLTAVTSASTAYMDLSSLTNEDSAVYYCTRGITTAPDYWGQGTTLTVSS
VL: NIVMTQSPKSMSMSVGERVTLSCKASENVGIHVSWYQQKPEQSPKLLIYGASSGYNGVPDRFTGSGSATDFTLTISSVQPEDLADYHCGQTYSYPFTFGSGTKLEIK
notes: mouse antibody purified from ascites
B2: 45-7G9 (antibody, V domains shown)
VH: QVQLQQPGSALVRPGASVKLSCKASGYTFSNYWIHWVKQRHGQGLEWIGNIYPASDYTNYDEKFKNKGTLTVDTSSSTAYMHLSSLTSEDSAVYYCSRGYFGSLDYWGQGTSVTVSA
VL: DILLTQSPAILSVNPGERVSFSCRASQPIGTGIHWYQQRTNGSPRLLIKSASESISGIPSRFSGSGSGTDFTLTINNVESDDVGDYYCQQSYSWPTTFGGGTKLKIN
notes: as for B1
B3: 45-4B9 (antibody, V domains shown)
VH: EVQLQQSGPELVKPGASVKMSCKASGYTFTTYVMYWVKQRPGQGLEWIGYINPYNDDIRYNEKFKGKATLTSDRSSSTAYMELSSLTSEDSAVYLCARQGGDYWGQGTILTVSS
VL: DVQITQSPSYLAASPGETITVNCRASKNINKYLAWYQEKPGKTNKLLIYSGSTLQSGIPSRFSGSGSGTDFTLTISSLEPEDFAVYHCQQYNEYPLTFGAGTKLEMK
notes: as for B1
B4: 45-7E9 (antibody, V domains shown)
VH: QVQLKQSGPGLVQPSQSLSITCTVSGFSLTTYGVHWVRQPPGKGLEWLGVIWSDGNTDYNDAFISRLSITKDNSTSQVFFKMNGLQADDTAIYYCARNSITSVSFDCWGQGTTLTVSS
VL: DIVMTQSQKFMSTSVGDRVSVTCKASQNVGTTVAWYQQRPGQSPKALICSASYRYSGVPDRFTGSGSGTDFTLTISNVQSEDLAEYFCQQYNSYPLTFGSGTKLEIK
notes: as for B1
B5: 45-2B3 (antibody, V domains shown)
VH: QVQLQQSGPELVKPGASVKISCKTSGYAFSTSWMNWVKQRPGQGLEWIGRIYPGDGDTDYNGRFKGKATLTADKSSSTAYLQLSSLTSVDSAVYFCARLDGYYEVFYFDYWGQGTTLTVSS
VL: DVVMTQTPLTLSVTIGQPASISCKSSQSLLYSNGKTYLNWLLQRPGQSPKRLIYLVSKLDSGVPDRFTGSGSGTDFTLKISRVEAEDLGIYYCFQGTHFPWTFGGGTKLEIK
notes: as for B1

Legend:
[1] = target: T1, monkey (Rhesus macaque) 4-1BB (r4-1BB) …; experiment: flow cytometry on transfected CHO cells;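 further: antibodies tested at 1 µg/ml on CHO cells for 30 min at 4 °C, binding detected with FITC- or PE-labeled anti-mouse IgG Fc secondary by flow cytometry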
Method: (§1) 25 μl CHO cells were added to each well. 25 μl purified anti-h4-1BB antibodies (1 μg/ml) were added to each well and were incubated at 4° C. for 30 minutes.
(§2) After being washed with PBS (1200 rmp, 5 min) twice, 50 μl of FITC labeled anti-mouse IgG Fc antibody (anti-mIgG Fc-FITC) was added into each well at 1:100 dilution, followed by incubating at 4° C. for 30 minutes, and then PBS wash (1200 rmp, 5 min). In some cases, PE labeled anti-mouse IgG Fc antibody (anti-mIgG Fc-PE) was used to label the antibody instead, and was added into each tested well at 1:500 dilution. The signals for FITC and PE were determined by flow cytometry.

[2] = target: T2, chimeric (mouse and human) 4-1BB (c4-1BB) on transfected CHO cells (chimeric (mouse and human)); experiment: flow cytometry on transfected CHO cells;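 further: antibodies tested at 1 µg/ml on CHO cells for 30 min at 4 °C, binding detected with FITC- or PE-labeled anti-mouse IgG Fc secondary by flow cytometry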
T2 construct: also called chi4-1BB; CHO-c4-1BB
Method: as §1, §2

[3] = target: T3, mouse 4-1BB (m4-1BB) on transfected CHO cells (mouse, UniProt P20334 24-256); experiment: flow cytometry on CHO cells transfected with mouse 4-1BB
T3 construct: also called CHO-m4-1BB
Method: as §1, §2

[4] = target: T4, human 4-1BB (h4-1BB) on transiently transfected CHO cells (human, UniProt Q07011 24-255); experiment: flow cytometry, CHO cells transfected with human 4-1BB, antibody at 1 µg/ml
T4 construct: also called TNFRSF9; CD137
Method: (§3) 25 μl CHO cells transiently transfected with human 4-1BB were added to each well in a plate. The purified antibodies were titrated to final concentrations of 10, 1, 0.1, 0.01, 0.001 μg/ml. The titrated antibodies were added to each well at 4° C. and incubated for 30 minutes.
(§4) After being washed with phosphate-buffered saline (PBS) (1200 rpm, 5 minutes) twice, 50 μl of FITC labeled anti-mouse IgG Fc antibody (anti-mIgG Fc-FITC) at 1:100 dilution was added into each well, and incubated for 30 minutes at 4° C., followed by PBS wash (1200 rpm, 5 minutes). The signal for FITC was detected by flow cytometry.

[5] = target: T4, human 4-1BB (h4-1BB) on transiently …; experiment: flow cytometry, CHO cells transfected with human 4-1BB, antibody at 10 µg/ml
Method: as §3, §4

[6] = target: T4, human 4-1BB (h4-1BB) on transiently …; experiment: flow cytometry, CHO cells transfected with human 4-1BB, antibody at 0.1 µg/ml
Method: as §3, §4

[7] = target: T4, human 4-1BB (h4-1BB) on transiently …; experiment: flow cytometry, CHO cells transfected with human 4-1BB, antibody at 0.01 µg/ml
Method: as §3, §4

[8] = target: T4, human 4-1BB (h4-1BB) on transiently …; experiment: flow cytometry, CHO cells transfected with human 4-1BB, antibody at 0.001 µg/ml
Method: as §3, §4

Binder | binding result [1] | binding result [2] | binding result [3] | percentage of cells with FITC signal [4] [%] | percentage of cells with FITC signal [5] [%] | percentage of cells with FITC signal [6] [%] | percentage of cells with FITC signal [7] [%] | percentage of cells with FITC signal [8] [%]
B1 | binds | binds | no binding (tested: 1 µg/ml) | 56.1 | 58.6 | 43.9 | 6.21 | 1.38
B2 | binds | binds | no binding (tested: 1 µg/ml) | 55.1 | 57.9 | 25.9 | 0.96 | 1
B3 | binds | binds | no binding (tested: 1 µg/ml) | 49.3 | 56.2 | 10.4 | 1.2 | 1.86
B4 | binds | binds | no binding (tested: 1 µg/ml) | 58.4 | 57.6 | 50 | 12.7 | 0.703
B5 | binds | binds | no binding (tested: 1 µg/ml) | 51.8 | 62.2 | 12 | 0.622 | 0.504
